The labels stand for the following.
B1: VNAR clone A8 fused N-terminally to human IgG1 Fc (VNAR-hFc) (Fc fusion, not shown: a dimerising Fc or GST)
chain: ARVDQTPQTITKEEGESLTINCVLRRNFQLASTSWYRKKSGSTREETISKGGRYVETVNSGSKSFSLRINDLTVEDSGTYRCNVYGFVEFAKNIVEFIDVYGDGTAVTVNA
B2: VNAR clone H7 fused N-terminally to human IgG1 Fc (VNAR-hFc) (Fc fusion, not shown: a dimerising Fc or GST)
chain: ARVDQTPQTITKEEGESLTINCVLRYNNPALASTSWYRKKSGSTREETISKGGRYVETVNSGSKSFSLRINDLTVEDSGTYRCNVYFFPSFLVDKLQSHDVYGDGTAVTVNA
B3: VNAR clone H6 fused N-terminally to human IgG1 Fc (VNAR-hFc) (Fc fusion, not shown: a dimerising Fc or GST)
chain: ARVDQTPQTITKEEGESLTINCVLRTHSNALASTSWYRKKSGSTREETISKGGRYVETVNSGSKSFSLRINDLTVEDSGTYRCNVYAFLEIQPNIYHEFDVYGDGTAVTVNA
B4: VNAR clone G10 fused N-terminally to human IgG1 Fc (VNAR-hFc) (Fc fusion, not shown: a dimerising Fc or GST)
chain: ARVDQTPQTITKETGESLTINCVLRDSNCALSSTYWYRKKSGSTNEENISKGGRYVETVNSGSKSFSLKINDLTVEDSGTYRCKVVFKLFSGRACAGEKDVYGGGTVVTVNA
B5: VNAR clone G6 fused N-terminally to human IgG1 Fc (VNAR-hFc) (Fc fusion, not shown: a dimerising Fc or GST)
chain: ARVDQTPQTITKEEGESLTINCVLRVETRALASTSWYRKKSGSTREETISKGGRYVETVNSGSKSFSLRINDLTVEDSGTYRCNVYIRHYSEFTQAPFRDVYGDGTAVTVNA
B6: VNAR clone G3 fused N-terminally to human IgG1 Fc (VNAR-hFc) (Fc fusion, not shown: a dimerising Fc or GST)
chain: ARVDQTPQTITKETGESLTINCVLRDNNCALSTTYWYRKKSGSTNEENISKGGRYVETVNSGSKSFSLRINDLTVEDSGTYRCKVHFFPSFCNSTSIRSVDVYGGGTVVTVNA
B7: VNAR clone G12 fused N-terminally to human IgG1 Fc (VNAR-hFc) (Fc fusion, not shown: a dimerising Fc or GST)
chain: ARVDQTPQTITKETGESLTINCVLRDSNCALSSTYWYRKKSGSTNEALISKGGRYVETVNSGSKSFSLRINDLTVEDSGTYRCNVVQDLRDDCFFRDVYGGGTAVTVNA
B8: VNAR clone C6 fused N-terminally to human IgG1 Fc (VNAR-hFc) (Fc fusion, not shown: a dimerising Fc or GST)
chain: B7 chain with Q87Y
B9: VNAR clone D1 fused N-terminally to human IgG1 Fc (VNAR-hFc) (Fc fusion, not shown: a dimerising Fc or GST)
chain: ARVDQTPQTITKEEGESLTINCVLRHNYSALASTSWYRKKSGSTREETISKGGRYVETVNSGSKSFSLRINDLTVEDSGTYRCNVYGISFIEEKIRYDFDVYGDGTAVTVNA
B10: VNAR clone F1 fused N-terminally to human IgG1 Fc (VNAR-hFc) (Fc fusion, not shown: a dimerising Fc or GST)
chain: ARVDQTPQTITKEEGESLTINCVLRVHGRALASTSWYRKKSGSTREETISKGGRYVETVNSGSKSFSLRINDLTVEDSGTYRCNVYGLSSGDIEGVKKIDVYGDGTAVTVNA
B11: VNAR clone H12 fused N-terminally to human IgG1 Fc (VNAR-hFc) (Fc fusion, not shown: a dimerising Fc or GST)
chain: B10 chain with R29C, S90F, G91V
B12: VNAR clone F12 fused N-terminally to human IgG1 Fc (VNAR-hFc) (Fc fusion, not shown: a dimerising Fc or GST)
chain: B10 chain with S90F
B13: VNAR clone B12 fused N-terminally to human IgG1 Fc (VNAR-hFc) (Fc fusion, not shown: a dimerising Fc or GST)
chain: ARVDQTPRSVTKETGESLTINCVLRDASYALGSTCWYRKKSGSTNEESISKGGRYVETVNSGSKSFSLRINDLTVEDGGTYRCGVARGWRTLNYLCDVRTGEWSCVWRAAACGDGTAVTVNA
B14: VNAR clone H7A fused N-terminally to human IgG1 Fc (VNAR-hFc) (Fc fusion, not shown: a dimerising Fc or GST)
chain: PGVDQTEQTIKKEEGESVTIKCVMRVKYPALASTSRYRKKSGSREETISKGGRYVETVNYSSKSISVRINDMTVEDSGRYRCNVYEEYAVDCDALVYQDVYGDGTAVTVNA
B15: VNAR clone E12 fused N-terminally to human IgG1 Fc (VNAR-hFc) (Fc fusion, not shown: a dimerising Fc or GST)
chain: ARVDQTPQTITKEEGESLTINCVLRTQDPALASTSWYRKKSGSTREETISKGGRYVETVNSGSKSFSLRINDLTVEDSGTYRCNVYFLLAPTKTKLQGIDVYGDGTAVTVNA
B16: VNAR clone F11 fused N-terminally to human IgG1 Fc (VNAR-hFc) (Fc fusion, not shown: a dimerising Fc or GST)
chain: ARVDQTPQTITKEEGESLTINCVLRGEFYALASTSWYRKKSGSTREETISKGGRYVETVNSGSKSFSLRINDLTVEDSGTYRCNVYGYRIFSPEVKGPNDVYGDGTAVTVNA
B17: VNAR clone H8 fused N-terminally to human IgG1 Fc (VNAR-hFc) (Fc fusion, not shown: a dimerising Fc or GST)
chain: ARVDQTPQTITKETGESLTINCVLRDSNCALPSTYWYRKKSGSTNEESISKGGRYVETVNSGSKSFSLRINDLVVEDSGTYRCKVGNYCIRLCYDMKFAVDVYGGGTAVTVNA

Positions count from the first letter of the chain named. In names and notes the source's numbering stands.

Chain of Human serum albumin (human) (P02768 25-609 limits assumed): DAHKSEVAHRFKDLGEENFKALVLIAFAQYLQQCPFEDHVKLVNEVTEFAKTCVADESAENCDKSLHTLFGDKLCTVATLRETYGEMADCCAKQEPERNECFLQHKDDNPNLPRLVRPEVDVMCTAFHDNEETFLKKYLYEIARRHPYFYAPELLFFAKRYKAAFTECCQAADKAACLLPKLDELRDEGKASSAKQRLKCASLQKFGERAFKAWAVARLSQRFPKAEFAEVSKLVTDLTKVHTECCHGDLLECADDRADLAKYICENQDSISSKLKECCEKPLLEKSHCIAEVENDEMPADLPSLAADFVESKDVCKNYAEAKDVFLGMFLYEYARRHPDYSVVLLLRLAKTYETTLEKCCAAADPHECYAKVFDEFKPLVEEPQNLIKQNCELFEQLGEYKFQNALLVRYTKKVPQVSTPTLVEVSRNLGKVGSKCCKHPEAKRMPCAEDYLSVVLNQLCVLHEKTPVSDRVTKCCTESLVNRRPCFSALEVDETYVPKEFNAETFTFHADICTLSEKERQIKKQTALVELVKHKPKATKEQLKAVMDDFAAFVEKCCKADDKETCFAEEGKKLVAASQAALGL
Chain of ectodomain of human CD98hc (human) (P08195 206-630): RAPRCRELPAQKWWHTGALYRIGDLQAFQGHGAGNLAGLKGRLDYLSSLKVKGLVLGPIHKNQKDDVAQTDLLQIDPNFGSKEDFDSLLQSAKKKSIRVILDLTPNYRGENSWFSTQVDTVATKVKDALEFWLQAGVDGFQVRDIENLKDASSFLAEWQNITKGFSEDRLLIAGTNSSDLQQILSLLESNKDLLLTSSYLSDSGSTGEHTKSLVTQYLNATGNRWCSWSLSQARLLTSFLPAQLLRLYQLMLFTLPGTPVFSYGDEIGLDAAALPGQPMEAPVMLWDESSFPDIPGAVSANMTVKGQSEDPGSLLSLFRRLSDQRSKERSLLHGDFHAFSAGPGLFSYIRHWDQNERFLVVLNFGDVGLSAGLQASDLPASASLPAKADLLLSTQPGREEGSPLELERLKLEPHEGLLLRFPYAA

One assay has as its target Human serum albumin (human) (UniProt P02768). Kind of assay: ELISA, expression medium of VNAR-hFc on coated protein (negative control). (ELISA stands for enzyme-linked immunosorbent assay.)
As to B1, the Binding [relative units] (relative units) stood at 0.065.

B2 returned a Binding [relative units] (relative units) of 0.072.

In turn, B3 registered a Binding [relative units] (relative units) of 0.06.

In turn, B4 returned a Binding [relative units] (relative units) of 0.051.

B5 showed a Binding [relative units] (relative units) of 0.052.

B6: the Binding [relative units] (relative units) came out at 0.053.

For the molecule B7, the Binding [relative units] (relative units) worked out at 0.054.

For the molecule B8, the Binding [relative units] (relative units) was determined as 0.052.

Consider B9, for which the Binding [relative units] (relative units) was found to be 0.074.

Take B10: the Binding [relative units] (relative units) was determined as 0.073.

On to B11, for which the Binding [relative units] (relative units) turned out to be 0.055.

For the molecule B12, the Binding [relative units] (relative units) turned out to be 0.112.

Molecule B13 gave a Binding [relative units] (relative units) of 0.081.

For the molecule B14, the Binding [relative units] (relative units) is 0.054.

With B15, the Binding [relative units] (relative units) was 0.056.

As for B16, the Binding [relative units] (relative units) was 0.072.

In turn, B17 came in with a Binding [relative units] (relative units) of 0.059.

The target of another assay is ectodomain of murine CD98hc (mouse) (UniProt P10852). Kind of assay: ELISA, expression medium of VNAR-hFc on coated protein.
Chain of ectodomain of murine CD98hc (mouse) (P10852 100-526): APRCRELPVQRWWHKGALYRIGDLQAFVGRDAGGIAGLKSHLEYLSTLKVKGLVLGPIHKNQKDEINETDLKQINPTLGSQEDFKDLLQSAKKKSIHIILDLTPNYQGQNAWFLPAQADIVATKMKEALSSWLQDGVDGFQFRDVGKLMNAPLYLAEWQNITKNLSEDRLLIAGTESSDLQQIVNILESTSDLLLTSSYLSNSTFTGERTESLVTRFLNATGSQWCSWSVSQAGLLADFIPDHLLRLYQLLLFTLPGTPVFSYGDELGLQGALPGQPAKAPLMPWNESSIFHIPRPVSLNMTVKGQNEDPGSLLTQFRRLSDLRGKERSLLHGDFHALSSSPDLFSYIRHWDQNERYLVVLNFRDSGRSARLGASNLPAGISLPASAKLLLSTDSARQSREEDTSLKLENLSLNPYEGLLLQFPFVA
As for B1, the Binding [relative units] (relative units) is 0.135.

As for B2, the Binding [relative units] (relative units) is 0.108.

B3 gave a Binding [relative units] (relative units) of 0.186.

B4 had a Binding [relative units] (relative units) of 0.041.

As to B5, the Binding [relative units] (relative units) stood at 0.041.

In turn, B6 showed a Binding [relative units] (relative units) of 0.041.

For B7, the Binding [relative units] (relative units) stood at 0.044.

B8 gave a Binding [relative units] (relative units) of 0.042.

In the case of B9, the Binding [relative units] (relative units) is 0.417.

Molecule B10 gave a Binding [relative units] (relative units) of 0.115.

For B11, the Binding [relative units] (relative units) came out at 0.045.

B12 had a Binding [relative units] (relative units) of 0.563.

On to B13, for which the Binding [relative units] (relative units) is 0.084.

B14 displayed a Binding [relative units] (relative units) of 0.043.

B15 showed a Binding [relative units] (relative units) of 0.078.

In turn, B16 showed a Binding [relative units] (relative units) of 0.096.

Turning to B17, the Binding [relative units] (relative units) turned out to be 0.049.

Another assay addresses ectodomain of human CD98hc (human) (UniProt P08195). The description is as above.
Consider B1, for which the Binding [relative units] (relative units) came out at 2.97.

B4 returned a Binding [relative units] (relative units) of 0.043.

B5: the Binding [relative units] (relative units) is 0.042.

Take B7: the Binding [relative units] (relative units) is 0.044.

B8: the Binding [relative units] (relative units) was determined as 0.041.

In turn, B11 displayed a Binding [relative units] (relative units) of 0.046.

Regarding B13, the Binding [relative units] (relative units) turned out to be 0.076.

For B14, the Binding [relative units] (relative units) amounted to 0.043.

In turn, B16 gave a Binding [relative units] (relative units) of 3.03.

The molecule B17 returned a Binding [relative units] (relative units) of 0.048.

Another assay concerns the target ectodomain of murine CD98hc (mouse) (UniProt P10852). Kind of assay: ELISA, purified VNAR-Fc titrated on coated CD98hc.
Usually EC50 stands for the concentration that produces a half-maximal response. Turning to B2, the EC50 was determined as 504 nM.

B3 had an EC50 of 86 nM.

Molecule B9 gave an EC50 of 190 nM.

B10 gave an EC50 of 3860 nM.

In turn, B12 came in with an EC50 of 72 nM. Compared with the last molecule, the EC50 is about 54-fold lower.

Regarding B15, the EC50 is 819 nM.

(Values after patent US20250263502A1.)
